Source: paper PMC11851098 (Nucleic Acids Research, 2025)

How the values were obtained:
SEC = target: the molecule itself; experiment: SEC
Suv3 helicase = target: T1, Suv3 helicase (UniProt Q8IYB8 23-786, Alexa 647 label (site not stated) in the MST assay); experiment: MST
T1 sequence (looked up): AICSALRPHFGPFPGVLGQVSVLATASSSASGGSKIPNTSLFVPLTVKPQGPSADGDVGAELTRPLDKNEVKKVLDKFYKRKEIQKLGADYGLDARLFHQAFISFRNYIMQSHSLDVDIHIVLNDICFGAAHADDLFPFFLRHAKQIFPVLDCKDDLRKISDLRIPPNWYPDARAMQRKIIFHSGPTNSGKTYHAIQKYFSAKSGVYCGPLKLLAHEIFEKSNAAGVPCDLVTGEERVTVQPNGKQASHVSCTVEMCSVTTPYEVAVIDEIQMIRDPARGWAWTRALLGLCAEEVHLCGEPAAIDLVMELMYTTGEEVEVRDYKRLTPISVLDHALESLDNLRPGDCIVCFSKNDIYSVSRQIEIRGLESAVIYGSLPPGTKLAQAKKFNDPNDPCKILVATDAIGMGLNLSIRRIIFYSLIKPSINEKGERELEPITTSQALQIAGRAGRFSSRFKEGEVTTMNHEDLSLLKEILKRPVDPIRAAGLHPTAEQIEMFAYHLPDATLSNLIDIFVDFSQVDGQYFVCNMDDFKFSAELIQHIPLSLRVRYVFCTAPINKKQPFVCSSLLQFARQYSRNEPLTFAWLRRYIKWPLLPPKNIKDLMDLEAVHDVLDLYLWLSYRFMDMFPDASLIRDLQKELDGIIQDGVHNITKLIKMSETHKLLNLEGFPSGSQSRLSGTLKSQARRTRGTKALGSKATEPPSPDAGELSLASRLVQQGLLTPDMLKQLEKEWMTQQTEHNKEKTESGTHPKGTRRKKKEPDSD

SAXS = target: the molecule itself; experiment: SAXS

Row | Binder | stoichiometry N (SEC) | Kd (Suv3 helicase) [nM] | stoichiometry N (SAXS)
1 | human polynucleotide phosphorylase (hPNPase), wild type, residues 46-783 (enzyme, UniProt Q8TCS8 46-783, looked up) AVAVDLGNRKLEISSGKLARFADGSAVVQSGDTAVMVTAVSKTKPSPSQFMPLVVDYRQKAAAAGRIPTNYLRREIGTSDKEILTSRIIDRSIRPLFPAGYFYDTQVLCNLLAVDGVNEPDVLAINGASVALSLSDIPWNGPVGAVRIGIIDGEYVVNPTRKEMSSSTLNLVVAGAPKSQIVMLEASAENILQQDFCHAIKVGVKYTQQIIQGIQQLVKETGVTKRTPQKLFTPSPEIVKYTHKLAMERLYAVFTDYEHDKVSRDEAVNKIRLDTEEQLKEKFPEADPYEIIESFNVVAKEVFRSIVLNEYKRCDGRDLTSLRNVSCEVDMFKTLHGSALFQRGQTQVLCTVTFDSLESGIKSDQVITAINGIKDKNFMLHYEFPPYATNEIGKVTGLNRRELGHGALAEKALYPVIPRDFPFTIRVTSEVLESNGSSSMASACGGSLALMDSGVPISSAVAGVAIGLVTKTDPEKGEIEDYRLLTDILGIEDYNGDMDFKIAGTNKGITALQADIKLPGIPIKIVMEAIQQASVAKKEILQIMNKTISKPRASRKENGPVVETVQVPLSKRAKFVGPGGYNLKKLQAETGVTISQVDEETFSVFAPTPSAMHEARDFITEICKDDQEQQLEFGAVYTATITEIRDTGVMVKLYPNMTAVLLHNTQLDQRKIKHPTALGLEVGQEIQVKYFGRDPADGRMRLSRKVLQSPATTVVRTLNDRSSIVMGEPISQSSSNSQ | 3 | 297 ± 80 | 
2 | hPNPase G499R-S484A double mutant, residues 46-783 (enzyme, human, UniProt Q8TCS8 46-783, looked up) AVAVDLGNRKLEISSGKLARFADGSAVVQSGDTAVMVTAVSKTKPSPSQFMPLVVDYRQKAAAAGRIPTNYLRREIGTSDKEILTSRIIDRSIRPLFPAGYFYDTQVLCNLLAVDGVNEPDVLAINGASVALSLSDIPWNGPVGAVRIGIIDGEYVVNPTRKEMSSSTLNLVVAGAPKSQIVMLEASAENILQQDFCHAIKVGVKYTQQIIQGIQQLVKETGVTKRTPQKLFTPSPEIVKYTHKLAMERLYAVFTDYEHDKVSRDEAVNKIRLDTEEQLKEKFPEADPYEIIESFNVVAKEVFRSIVLNEYKRCDGRDLTSLRNVSCEVDMFKTLHGSALFQRGQTQVLCTVTFDSLESGIKSDQVITAINGIKDKNFMLHYEFPPYATNEIGKVTGLNRRELGHGALAEKALYPVIPRDFPFTIRVTSEVLESNGSSAMASACGGSLALMDSRVPISSAVAGVAIGLVTKTDPEKGEIEDYRLLTDILGIEDYNGDMDFKIAGTNKGITALQADIKLPGIPIKIVMEAIQQASVAKKEILQIMNKTISKPRASRKENGPVVETVQVPLSKRAKFVGPGGYNLKKLQAETGVTISQVDEETFSVFAPTPSAMHEARDFITEICKDDQEQQLEFGAVYTATITEIRDTGVMVKLYPNMTAVLLHNTQLDQRKIKHPTALGLEVGQEIQVKYFGRDPADGRMRLSRKVLQSPATTVVRTLNDRSSIVMGEPISQSSSNSQ | 3 |  | 
3 | hPNPase D713Y-S484A double mutant, residues 46-783 (enzyme, human, UniProt Q8TCS8 46-783, looked up) AVAVDLGNRKLEISSGKLARFADGSAVVQSGDTAVMVTAVSKTKPSPSQFMPLVVDYRQKAAAAGRIPTNYLRREIGTSDKEILTSRIIDRSIRPLFPAGYFYDTQVLCNLLAVDGVNEPDVLAINGASVALSLSDIPWNGPVGAVRIGIIDGEYVVNPTRKEMSSSTLNLVVAGAPKSQIVMLEASAENILQQDFCHAIKVGVKYTQQIIQGIQQLVKETGVTKRTPQKLFTPSPEIVKYTHKLAMERLYAVFTDYEHDKVSRDEAVNKIRLDTEEQLKEKFPEADPYEIIESFNVVAKEVFRSIVLNEYKRCDGRDLTSLRNVSCEVDMFKTLHGSALFQRGQTQVLCTVTFDSLESGIKSDQVITAINGIKDKNFMLHYEFPPYATNEIGKVTGLNRRELGHGALAEKALYPVIPRDFPFTIRVTSEVLESNGSSAMASACGGSLALMDSGVPISSAVAGVAIGLVTKTDPEKGEIEDYRLLTDILGIEDYNGDMDFKIAGTNKGITALQADIKLPGIPIKIVMEAIQQASVAKKEILQIMNKTISKPRASRKENGPVVETVQVPLSKRAKFVGPGGYNLKKLQAETGVTISQVDEETFSVFAPTPSAMHEARDFITEICKDDQEQQLEFGAVYTATITEIRDTGVMVKLYPNMTAVLLHNTQLYQRKIKHPTALGLEVGQEIQVKYFGRDPADGRMRLSRKVLQSPATTVVRTLNDRSSIVMGEPISQSSSNSQ | 3 |  | 
4 | hPNPase P467S-S484A double mutant, residues 46-783 (enzyme, human, UniProt Q8TCS8 46-783, looked up) AVAVDLGNRKLEISSGKLARFADGSAVVQSGDTAVMVTAVSKTKPSPSQFMPLVVDYRQKAAAAGRIPTNYLRREIGTSDKEILTSRIIDRSIRPLFPAGYFYDTQVLCNLLAVDGVNEPDVLAINGASVALSLSDIPWNGPVGAVRIGIIDGEYVVNPTRKEMSSSTLNLVVAGAPKSQIVMLEASAENILQQDFCHAIKVGVKYTQQIIQGIQQLVKETGVTKRTPQKLFTPSPEIVKYTHKLAMERLYAVFTDYEHDKVSRDEAVNKIRLDTEEQLKEKFPEADPYEIIESFNVVAKEVFRSIVLNEYKRCDGRDLTSLRNVSCEVDMFKTLHGSALFQRGQTQVLCTVTFDSLESGIKSDQVITAINGIKDKNFMLHYEFPPYATNEIGKVTGLNRRELGHGALAEKALYPVIPRDFSFTIRVTSEVLESNGSSAMASACGGSLALMDSGVPISSAVAGVAIGLVTKTDPEKGEIEDYRLLTDILGIEDYNGDMDFKIAGTNKGITALQADIKLPGIPIKIVMEAIQQASVAKKEILQIMNKTISKPRASRKENGPVVETVQVPLSKRAKFVGPGGYNLKKLQAETGVTISQVDEETFSVFAPTPSAMHEARDFITEICKDDQEQQLEFGAVYTATITEIRDTGVMVKLYPNMTAVLLHNTQLDQRKIKHPTALGLEVGQEIQVKYFGRDPADGRMRLSRKVLQSPATTVVRTLNDRSSIVMGEPISQSSSNSQ | 3 |  | 
5 | hPNPase S484A mutant (inactive) (enzyme, human, UniProt Q8TCS8 46-783, looked up) AVAVDLGNRKLEISSGKLARFADGSAVVQSGDTAVMVTAVSKTKPSPSQFMPLVVDYRQKAAAAGRIPTNYLRREIGTSDKEILTSRIIDRSIRPLFPAGYFYDTQVLCNLLAVDGVNEPDVLAINGASVALSLSDIPWNGPVGAVRIGIIDGEYVVNPTRKEMSSSTLNLVVAGAPKSQIVMLEASAENILQQDFCHAIKVGVKYTQQIIQGIQQLVKETGVTKRTPQKLFTPSPEIVKYTHKLAMERLYAVFTDYEHDKVSRDEAVNKIRLDTEEQLKEKFPEADPYEIIESFNVVAKEVFRSIVLNEYKRCDGRDLTSLRNVSCEVDMFKTLHGSALFQRGQTQVLCTVTFDSLESGIKSDQVITAINGIKDKNFMLHYEFPPYATNEIGKVTGLNRRELGHGALAEKALYPVIPRDFPFTIRVTSEVLESNGSSAMASACGGSLALMDSGVPISSAVAGVAIGLVTKTDPEKGEIEDYRLLTDILGIEDYNGDMDFKIAGTNKGITALQADIKLPGIPIKIVMEAIQQASVAKKEILQIMNKTISKPRASRKENGPVVETVQVPLSKRAKFVGPGGYNLKKLQAETGVTISQVDEETFSVFAPTPSAMHEARDFITEICKDDQEQQLEFGAVYTATITEIRDTGVMVKLYPNMTAVLLHNTQLDQRKIKHPTALGLEVGQEIQVKYFGRDPADGRMRLSRKVLQSPATTVVRTLNDRSSIVMGEPISQSSSNSQ |  |  | 3
6 | hPNPase D713Y mutant, residues 46-783 (enzyme, human, UniProt Q8TCS8 46-783, looked up) AVAVDLGNRKLEISSGKLARFADGSAVVQSGDTAVMVTAVSKTKPSPSQFMPLVVDYRQKAAAAGRIPTNYLRREIGTSDKEILTSRIIDRSIRPLFPAGYFYDTQVLCNLLAVDGVNEPDVLAINGASVALSLSDIPWNGPVGAVRIGIIDGEYVVNPTRKEMSSSTLNLVVAGAPKSQIVMLEASAENILQQDFCHAIKVGVKYTQQIIQGIQQLVKETGVTKRTPQKLFTPSPEIVKYTHKLAMERLYAVFTDYEHDKVSRDEAVNKIRLDTEEQLKEKFPEADPYEIIESFNVVAKEVFRSIVLNEYKRCDGRDLTSLRNVSCEVDMFKTLHGSALFQRGQTQVLCTVTFDSLESGIKSDQVITAINGIKDKNFMLHYEFPPYATNEIGKVTGLNRRELGHGALAEKALYPVIPRDFPFTIRVTSEVLESNGSSSMASACGGSLALMDSGVPISSAVAGVAIGLVTKTDPEKGEIEDYRLLTDILGIEDYNGDMDFKIAGTNKGITALQADIKLPGIPIKIVMEAIQQASVAKKEILQIMNKTISKPRASRKENGPVVETVQVPLSKRAKFVGPGGYNLKKLQAETGVTISQVDEETFSVFAPTPSAMHEARDFITEICKDDQEQQLEFGAVYTATITEIRDTGVMVKLYPNMTAVLLHNTQLYQRKIKHPTALGLEVGQEIQVKYFGRDPADGRMRLSRKVLQSPATTVVRTLNDRSSIVMGEPISQSSSNSQ |  | 3890 ± 545 | 3
